Among the data in publication PMC2171497 are stoichiometry N values, retold here.

By stoichiometry N is commonly meant a count of units in the complex or per binding partner.

The target of this test is 2′,3′-cyclic nucleotide 3′-phosphodiesterase (CNP), endogenous, rat (rat (endogenous in cultured rat OLs and rat brain)) (UniProt P13233). Kind of test: co-IP.
Sequence of UniProt P13233 (P13233 whole entry): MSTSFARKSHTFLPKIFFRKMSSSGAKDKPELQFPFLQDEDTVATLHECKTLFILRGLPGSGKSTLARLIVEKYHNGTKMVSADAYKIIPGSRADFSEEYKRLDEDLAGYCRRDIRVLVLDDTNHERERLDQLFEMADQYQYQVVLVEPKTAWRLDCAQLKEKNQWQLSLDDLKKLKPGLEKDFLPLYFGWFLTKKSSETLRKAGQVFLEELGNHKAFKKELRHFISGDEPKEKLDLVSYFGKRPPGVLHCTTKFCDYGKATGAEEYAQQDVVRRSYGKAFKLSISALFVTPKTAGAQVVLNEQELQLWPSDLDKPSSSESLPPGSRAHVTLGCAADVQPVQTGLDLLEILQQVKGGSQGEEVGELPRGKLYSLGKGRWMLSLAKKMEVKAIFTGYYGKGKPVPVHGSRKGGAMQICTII

For “tubulin (α- and β-tubulin), endogenous, rat (from UniProt P68370 1-451; Q3KRE8 1-445) (complex)”, the stoichiometry N was determined as 1.
